What follows are substances tested against soluble CD4 (UniProt P01730) (assay: SPR).

Going from “HIV-1 YU-2 gp120 A281G (natural protein)” to “HIV-1 YU-2 gp120 I423M/N425K/G431E (natural protein)”, the Kd rises from 0.0123 µM to 0.0781 µM (6.3-fold). The first binds more tightly here.

Going from “HIV-1 YU-2 gp120 R456A (natural protein)” to “HIV-1 YU-2 gp120 N280A (natural protein)”, the Kd falls from 0.0113 µM to 0.0068 µM (1.7-fold).

Compared with “HIV-1 YU-2 gp120 K282A (natural protein)”, “HIV-1 YU-2 gp120 I420R (natural protein)” is 2.1-fold higher in Kd: 0.0119 µM for the first, 0.0248 µM for the second.

Going from “HIV-1 YU-2 gp120 T283A (natural protein)” to “HIV-1 YU-2 gp120 T278A (natural protein)”, the Kd falls from 0.0167 µM to 0.0073 µM (2.3-fold).

“HIV-1 YU-2 gp120 N279A (natural protein)” and “HIV-1 YU-2 gp120 P124A (natural protein)” are within 1.5-fold of each other in Kd: 0.0346 µM for the first, 0.0262 µM for the second.

For “HIV-1 YU-2 gp120 S375W/T257S (natural protein)”, the Kd was 0.0009 µM.
